Earlier results as cited in publication PMC3486867.

Target: Asp408 (UniProt position 408, GLLVDDAIVVV)
Assay: chemical modification (inferred from the title of ref 54: site-directed mutagenesis and carbodiimide labeling)

Substance: Multidrug transporter AcrB (not stated (Escherichia coli inferred))
- pKa: 7.4
